Test results as given in patent US6399344B1, “Isolated proteins having retinol dehydrogenase activity, and which associate with retinol binding receptors” (Ludwig Institute for Cancer Research, priority 1994, dated 2002).

Legend:
[1] = Retinol dehydrogenase activity in membranes of baculovirus-infected Sf9 cells, reversed phase HPLC; type: biochemical, murine
Procedure: In order to generate a protein from a eukaryotic system, a 1.2 kilobase EcoRI fragment of the SEQ ID NO: 35 plasmid described supra was subcloned into a baculovirus expression vector, using known methods. Then, the vector was used to transfect Spodoptera frugiperda (“Sf9”) cells, again using known methods. Recombinant baculoviruses were then amplified by several rounds of amplification, and were then used in fresh Sf9 cells. A parallel set of experiments were also carried out, but using recombinant virus containing an unrelated gene, whose expression product had no retinol dehydrogenase activity.
Expressed protein was then assessed for enzyme activity. In brief, membranes equivalent to 25 ug of total membrane protein from infected cells were incubated in phosphate buffered saline (PBS), containing 100 uM of 9-cis retinol, or all-trans retinol. Final volumes of incubated materials were 200 ul. Either cofactor NAD+ or cofactor NADP was also added, to a final concentration of 200 uM. The mixture was incubated for 20 minutes at 37° C., after which alkaline ethanol was added. The mixture was then extracted with 2.0 ml of n-hexane. The organic phase was then removed and dried under argon. Dried phases were dissolved in ethanol, and aliquots were analyzed by reversed phase HPLC, using a C18 column, and a mobile phase of acetonitrile/water (85:15 v/v). Elution was at 1.0 ml/min, with effluent being monitored at 350 nm.

p63 = biological target: T1, p63 (Bos taurus, UniProt Q28175); test: Immunoprecipitation of radiolabelled RPE-membrane proteins with mAb A52 / rabbit antisera to p63, SDS-PAGE; type: binding; details: solubilized bovine RPE membranes, immunoprecipitation with mAb A52 or rabbit antisera to p63
T1 construct: RPE-membrane proteins were then solubilized in phosphate-buffered saline; from tissue; host or cells: bovine retinal pigment epithelium (RPE) membrane fraction, CHAPS-solubilized, gel-filtered, 125I-labelled
T1 sequence (Q28175 2-533 limits assumed): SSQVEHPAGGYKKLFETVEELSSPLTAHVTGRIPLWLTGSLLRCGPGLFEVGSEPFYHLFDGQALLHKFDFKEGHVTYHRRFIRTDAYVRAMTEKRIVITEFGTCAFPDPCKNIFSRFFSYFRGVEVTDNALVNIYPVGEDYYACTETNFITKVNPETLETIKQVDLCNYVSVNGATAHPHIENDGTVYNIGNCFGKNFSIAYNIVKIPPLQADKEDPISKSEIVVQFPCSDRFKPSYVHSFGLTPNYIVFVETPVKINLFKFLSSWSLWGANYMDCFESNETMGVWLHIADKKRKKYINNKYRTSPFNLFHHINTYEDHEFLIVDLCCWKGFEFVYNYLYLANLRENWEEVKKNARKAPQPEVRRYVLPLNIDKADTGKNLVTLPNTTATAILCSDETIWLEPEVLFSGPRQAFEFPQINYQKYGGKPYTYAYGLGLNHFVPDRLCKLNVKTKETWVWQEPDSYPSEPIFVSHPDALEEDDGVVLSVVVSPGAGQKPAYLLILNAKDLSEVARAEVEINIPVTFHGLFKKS
Procedure: Bovine RPE-cells were isolated and membrane fractions were prepared as described in Bavik et al, J. Biol. Chem. 266:[…] (1991) incorporated by reference. RPE-membrane proteins were then solubilized in phosphate-buffered saline (PBS) (20 mM sodium phosphate, PH 7.2, containing 150 mM NaCl), containing 1% 3-[(3-cholamido-propyl) -dimethylammonio] -1-propane sulfonic acid (CHAPS) at 1 mg of total membrane protein/ml of buffer. Remaining material was removed by ultracentrifugation at 100,000×g for 1 hour. Next, 500 ul aliquots of the solubilized membranes were subjected to gel filtration on a Sepharose 6 column equilibrated in PBS containing 1% CHAPS. The column was operated at a flow rate of 0.2 ml/min and 500 ul fractions collected. Proteins eluted in fractions corresponding to globular proteins of Mr 150,000 to 400,000 were then radiolabelled with Na^125I using the well-known Chloramin T procedure. […]
Aliquots of the radiolabelled proteins were then diluted in PBS containing 1% CHAPS and 1% bovine serum albumin and subsequently subjected to immunoprecipitation using the mAb A52 to p63 (5 ug per incubation) or using two polyclonal rabbit antisera to p63 (3 ul of serum per incubation) See Bavik et al., J. Biol. Chem. 267:23035-23042 (1992). Non-specific immunoprecipitation was monitored in parallel incubations using an unrelated mAb and preimmune rabbit serum. […]

[2] = Retinol dehydrogenase activity of p32 in microsomal fractions of transfected COS-cells, HPLC; type: biochemical, bovine
Procedure: Specifically, the EcoRI—insert of pλ321 was cloned into the EcoR1-digested eucaryotic expression vector pSG5. See Green et al., Nucl. Acid Res. 16:39 (1988). COS-cells were maintained in Dulbecco's minimal essential medium supplemented with 10% fetal bovine serum, 2mM glutamine and antibiotics. The cells were seeded into 60 mm petri dishes (4×10^5 cells per dish) and transfected with 5 ug of plasmid per dish using DEAE dextran. Control cells were transfected with equal amounts of the parental vector alone. After treatment with 10% DMSO for 2 minutes, the cells were incubated for 72-96 hours, and then harvested by scraping the dishes with a rubber policeman, and the cells thereafter collected by low speed centrifugation. The collected cell pellets were next resuspended in hypotonic buffer (10 mM Tris-HCl, pH 7.5 containing 1mM phenyl-methylsufonyl fluoride), put on ice for 20 minutes, and then homogenized using a Dounce homogenator. Unbroken cells and debris were removed by centrifugation (3000×g)for 15 minutes. Microsomes were subsequently collected by ultra-centrifugation at 100,000×g for 1 hour; membrane pellets were stored at −80° C. until further analyzed.
Next, some of the enzymatic properties of p32 expressed in COS-cells were determined in a manner similar to that as described in the study of 11-cis-retinol dehydrogenase activity in microsomal fractions of RPE cells. See Saari et al., Anal. Biochem 213:[…] (1993).
In particular, enzymatic activity of p32 was assayed by incubating the microsomal fractions from the aforementioned transfected cells, and from control cells lacking p32, with varying combinations of the different stereo isomeric substrates, i.e., 11-cis-retinol or all-trans-retinol, in the presence of either cofactor NAD+ or NADP.
To assay for p32 activity in transfected cells, the final concentration of 11-cis-retinol and all-trans-retinol (obtained from Sigma Chemical Co.) in the incubations was reduced to 100 uM. Twenty ug of total membrane protein from COS-cells expressing p32 or from control cells were used in each incubation, and thereafter a 30 minute incubation at 37° C. in the presence or absence of NAD+ or NADP followed. Reaction mixtures were then extracted with n-hexane, and organic phases removed and dried under argon. The dried organic phases were then separately dissolved in ethanol and aliquots were analyzed on a normal phase silica HPLC column developed with n-hexane containing 4% dioxane at 1 ml per minute. See Saari et al. J. Biol. Chem. 257:13329-13333 (1982). Effluent was monitored at 330 nm. Under these conditions, 11-cis-retinaldehyde and 11-cis retinol eluted at 7 minutes and 22.5 minutes, respectively, and all-trans-retinaldehyde and all-trans retinol eluted at 8 minutes and 23 minutes, respectively.

[3] = experiments not elaborated upon

B1: protein encoded by SEQ ID NO: 35: murine liver membrane associated protein of about 34 kilodaltons with 9-cis, 11-cis and 13-cis retinol dehydrogenase activity (protein)
chain: MWLPLLLGALLWAVLWLLRDRQSLPASDAFIFITGCDSGFGRLLALQLDQKGFQVLAGCLTPSGAEDLQQMASSRLHTTLLDITDPQNVQQVAKWVKTRVGETGLFGLVNNAGVAGIIGPTPWLTQDDFQRVLSVNTLGPIGVTLALLPLLQQARGRVVNITSVLGRIAANGGGYCVSKFGLEAFSDSLRRDMAPFGVQVSIVEPGFFRTPVTNLESLESTLKACWARLPPAIQAHYGEAFLDTYLRVQRRIMNLICDPELTKVTSCLEHALTARHPRTRYSPGWDAKLLWLPASYLPARVVDAVLTWILPRPAQSVS
oxidation of 9-cis retinol, efficiency relative to mock infected cells ([1]; 100 uM 9-cis retinol, 20 minutes at 37° C.): 8-10 times
9-cis retinaldehyde formation ([1]; 100 uM 9-cis retinol, cofactor NADP 200 uM): Background levels
11-cis RDH activity [1, 3]: observed
13-cis RDH activity [1, 3]: 13-cis RDH activity

B2: p32: 32 kDa membrane associated bovine RPE protein that complexes with p63; stereo specific 11-cis-retinol dehydrogenase (SEQ ID NO: 10) (protein)
chain: MWLPLLLGVLLWAALWLLRDRQCLPASDAFIFITGCDSGFGRLLALRLDQRGFRVLASCLTPSGAEDLQRVASSRLHTTLLDVTDPQSIRQAVKWVETHVGEAGLFGLVNNAGVAGIIGPTPWQTREDFQRVLNVNTLGPIGVTLALLPLLLQARGRVINITSVLGRLAANGGGYCVSKFGLEAFSDSLRRDVAPFGVRVSIVEPGFFRTPVTNLETLEDTLQACWARLPPATQALYGEAFLTKYLRVQQRIMNMICDPDLAKVSRCLEHALTARHPRTRYSPGWDAKLLWLPASYLPARLVDAVLAWVLPKPAQTVY
coprecipitation with p63 (binding to p63) (p63): coprecipitated
11-cis-retinol dehydrogenase activity (formation of 11-cis-retinaldehyde) ([2]; 100 uM 11-cis-retinol, cofactor NAD+, 30 minute at 37° C.): active
formation of all-trans retinaldehyde from all-trans retinol ([2]; 100 uM all-trans-retinol, 30 minute at 37° C.): no significant formation of all-trans retinaldehyde
11-cis-retinol dehydrogenase activity ([2]; cofactor NADP): not enzymatically-active
9-cis retinol dehydrogenase activity ([2]; further experiments, no details): has 9-cis retinol dehydrogenase activity
